Numbering of substitutions follows the chain as printed. Names may count otherwise.
Target: fluorescently labelled UDP-peptide bisubstrate conjugate
Experiment: fluorescence polarisation; increasing concentrations of OGT titrated against a fixed concentration of the fluorescent probe; 0.1 M Tris/HCl pH 7.5, 0.15 M NaCl, 0.5 mM TCEP, 5% DMSO; 30 min in the dark

B1: O-GlcNAc transferase, truncated wild type (catalytic domain and 3.5 TPR repeats, residues 323-1044) (enzyme)
chain: CPTHADSLNNLANIKREQGNIEEAVRLYRKALEVFPEFAAAHSNLASVLQQQGKLQEALMHYKEAIRISPTFADAYSNMGNTLKEMQDVQGALQCYTRAIQINPAFADAHSNLASIHKDSGNIPEAIASYRTALKLKPDFPDAYCNLAHCLQIVCDWTDYDERMKKLVSIVADQLEKNRLPSVHPHHSMLYPLSHGFRKAIAERHGNLCLDKINVLHKPPYEHPKDLKLSDGRLRVGYVSSDFGNHPTSHLMQSIPGMHNPDKFEVFCYALSPDDGTNFRVKVMAEANHFIDLSQIPCNGKAADRIHQDGIHILVNMNGYTKGARNELFALRPAPIQAMWLGYPGTSGALFMDYIITDQETSPAEVAEQYSEKLAYMPHTFFIGDHANMFPHLKKKAVIDFKSNGHIYDNRIVLNGIDLKAFLDSLPDVKIVKMKCPDGGDNADSSNTALNMPVIPMNTIAEAVIEMINRGQIQITINGFSISNGLATTQINNKAATGEEVPRTIIVTTRSQYGLPEDAIVYCNFNQLYKIDPSTLQMWANILKRVPNSVLWLLRFPAVGEPNIQQYAQNMGLPQNRIIFSPVAPKEEHVRRGQLADVCLDTPLCNGHTTGMDVLWAGTPMVTMPGETLASRVAASQLTCLGCLELIAKNRQEYEDIAVKLGTDLEYLKKVRGKVWKQRISSPLFNTKQYTMELERLYLQMWEHYAAGNKPDHMIKPVEVTE
Which Kd does the source give for B1 here?
Its Kd is 1.6 µM.

B2: O-GlcNAc transferase N648Y, truncated (catalytic domain and 3.5 TPR repeats, residues 323-1044) (enzyme)
chain: B1 chain with N326Y
Which Kd does the source give for B2 here?
Its Kd is 11 µM.

Reference: PMC7042088
